Measurements taken from patent US20230129844A1 (Amgen, published 2023).

Target: human MUC17 (huMUC17), membrane form (human, UniProt Q685J3 26-4493)
Test: immunohistochemistry on tissue sections

binding result: binds
B1: anti-huMUC17 4C11 IHC antibody (antibody, mouse IgG2a, kappa, V domains shown)
VH: EVQLQQSGPELVKPGDSVKISCKASGYSFTGNFLNWVMQSHGKSLEWIGRITPYSGETFYNQKFKDKATLTVDISSSIAHMELRSLTSEDSAVYYCARGVTTEVSHYYAMDYWGQGTAVTVSS
VL: DIQMNQSPSSLSASLGDTITITCHASQNINLWLHWYQQKPGNIPKLLIFKASNLHTGVPLRFSGSGSGTGFTLTISSLQPEDIATYFCQQGQSYPLTFGGGTKLEIKR
notes: Mouse hybridoma-derived monoclonal antibody; also called 4C11 antibody; the antibody of the invention
